Data on one protein can be found in PMC9813914, “Structural Basis for a Cork-Up Mechanism of the Intra-Molecular Mesaconyl-CoA Transferase” (Biochemistry, 2022).

Substrate in data set [1]: C/C(=C\C(=O)O)C(=O)SCCNC(=O)CCNC(=O)[C@H](O)C(C)(C)COP(=O)(O)OP(=O)(O)OC[C@H]1O[C@@H](n2cnc3c(N)ncnc32)[C@H](O)[C@@H]1OP(=O)(O)O
Briefly: purified protein. The class given is biochemical, Chloroflexus aurantiacus. To be noted: 200 mM HEPES/KOH pH 8.0, 55 °C, 22 nM Mct, intra-molecular CoA transfer C1 to C4.

Substrate in data set [2]: C/C(=C\C(=O)SCCNC(=O)CCNC(=O)[C@H](O)C(C)(C)COP(=O)(O)OP(=O)(O)OC[C@H]1O[C@@H](n2cnc3c(N)ncnc32)[C@H](O)[C@@H]1OP(=O)(O)O)C(=O)O
Briefly: purified protein. The format is biochemical, Chloroflexus aurantiacus. To be noted: 200 mM HEPES/KOH pH 8.0, 55 °C, 22 nM Mct, intra-molecular CoA transfer C4 to C1.

One may read the Km as the concentration of substrate that gives half-maximal velocity. What is called kcat is the number of substrate molecules converted per active site and unit of time at saturation.

B1: Mct (mesaconyl-CoA transferase; mesaconyl-C1:C4-CoA CoA transferase) (Chloroflexus aurantiacus J-10-fl) (protein)
chain: MKGILHGLRVVEGSAFVAAPLGGMTLAQLGADVIRFDPIGGGLDYKRWPVTLDGKHSLFWAGLNKGKRSIAIDIRHPRGQELLTQLICAPGEHAGLFITNFPARGWLSYDELKRHRADLIMVNLVGRRDGGSEVDYTVNPQLGLPFMTGPVTTPDVVNHVLPAWDIVTGQMIALGLLAAERHRRLTGEGQLVKIALKDVGLAMIGHLGMIAEVMINDTDRPRQGNYLYGAFGRDFETLDGKRVMVVGLTDLQWKALGKATGLTDAFNALGARLGLNMDEEGDRFRARHEIAALLEPWFHARTLAEVRRIFEQHRVTWAPYRTVREAIAQDPDCSTDNPMFAMVEQPGIGSYLMPGSPLDFTAVPRLPVQPAPRLGEHTDEILLEVLGLSEAEVGRLHDEGIVAGPDRAA
notes: intertwined homodimer
For B1, in “purified protein [1]”, the Km turned out to be 160 µM and the kcat stood at 370 s⁻¹. Besides, in the data set “purified protein [2]”, the Km is 200 µM and the kcat was 320 s⁻¹.
